Laboratory results taken from patent publication WO2001000678A1 (dated 2001).

Target: HIV-1 MN viral lysate (native gp120) (HIV-1 isolate MN, UniProt P05877 32-513)
Assay: ELISA, biotinylated Fab on viral lysate; reference HIV-1 IIIb lysate

B1: Fab 7 (Fab, V domains shown)
VH: EVQLQESGPGLVKPSETLSLTCTVSGGSISSSSYYWGWIRQPPGKGLEWIGSIYYSGSTYYNPSLKSRVTISVDTSKNQFSLKLSSVTAAYTAVYYCARRCTSGVCYGAFDYWGQGTPVTVSS
VL: DLVMTQSPSFLSASVGDRVTITCRASQGISSYLAWYQQKSGKAPKLLIYGTSILQSGVPSRFSGSGSGTESTLTISSLQPEDFATYYCQQLNSYPITFGQGTRLEIK
binding relative to the level seen with IIIb: ~50%
